Assay results taken from patent publication US20040054131A1 (CHIRON, published 2004).
Bridges are numbered along the chain shown (N, C = ends). Where no end group is shown, it is not given here.

B1: FGFR1c extracellular domain-IgG fusion protein (Fc fusion, human, UniProt P11362 22-377, looked up)
chain: RPSPTLPEQAQPWGAPVEVESFLVHPGDLLQLRCRLRDDVQSINWLRDGVQLAESNRTRITGEEVEVQDSVPADSGLYACVTSSPSGSDTTYFSVNVSDALPSSEDDDDDDDSSSEEKETDNTKPNRMPVAPYWTSPEKMEKKLHAVPAAKTVKFKCPSSGTPNPTLRWLKNGKEFKPDHRIGGYKVRYATWSIIMDSVVPSDKGNYTCIVENEYGSINHTYQLDVVERSPHRPILQAGLPANKTVALGSNVEFMCKVYSDPQPHIQWLKHIEVNGSKIGPDNLPYVQILKTAGVNTTDKEMEVLHLRNVSFEDAGEYTCLAGNSIGLSHHSAWLTVLEALEERPAVMTSPLYLEI
notes: range 1-377; also called FGFR-IgG; FGFR ECD; not shown: Fc region of human IgG1

Tests used:
[1] = target: B1; assay: BIAcore real-time kinetic analysis, immobilized FGFR1c ECD, no heparin; approximate apparent affinity
Experimental: C19 peptide with an intrapeptide disulfide bond was synthesized, purified by HPLC, and characterized by mass spectroscopy. C19junΔhep protein was prepared by changing human c-jun residues Arg276, Arg279, Lys285, and Lys288 in the leucine zipper domain to glutamines. […] The extracellular ligand-binding domain of human FGFR Ic (residues 1-377) and human erythropoietin receptor (residues 1-250) were fused to the Fe region of human IgGI, expressed in baculovirus and purified by protein A affinity chromatography. […] PDGF receptor Fc fusion protein was from R&D Systems.

[2] = target: FGF receptor (FGFR) on Swiss 3T3 cells; assay: cell-based or functional assay
[3] = target: B1; assay: deletion mutant analysis; method not stated
[4] = target: T1, F12 phagemid (F12 clone peptide displayed on M13 p8) (bacteriophage M13); assay: displacement of Europium-labeled FGFR-IgG by unlabeled FGFR-IgG from F12 phagemid captured on anti-M13 antibody (time-resolved fluorescence)
T1 construct: Assayed as whole phagemid particles captured by anti-M13 antibody; The frame A-X3-C-X10-C-X3-(GGS)2GG-p8 is inferred from the 18mer two-cysteine pattern of F12; not shown: M13 p8 coat protein, peptide fused to its N-terminus
Experimental: Nunc Maxisorp 96-well plates were coated with […] anti-M13 antibody in […] 50 mM Na₂CO₃ pH 9.6 and blocked using the conditions described in Example 2. Phagemid (˜10¹¹ cfu) were applied to wells in binding buffer for 1h and washed 6 times with PBS, 0.05% Tween 20, and 2 times with Delphia Wash Buffer (E&G Wallac). […] Wells were washed 8× in Delphia Wash Buffer, treated with 100 μL of Delphia Enhancer Solution and fluorescence measured. IC₅₀ values were determined from four-parameter fits to displacement plots.

| Binder | Kd [1] [nM] | further results |
| --- | --- | --- |
| AESGDDYCVLVFTDSAWTKICDWSHFRN (disulfide 8-21 (inferred), also called C19 peptide; C19 clone) [C19 synthetic peptide] | 400 |  |
| C19-jun fusion protein (designed binder, also called Clone 19-jun protein) MAESGDDYCVLVFTDSAWTKICDWSHFRNGPGGGSGGGSGGGSGGGSGGGSRCGGRIARLEEKVKTLKAQNSELASTANMLREQVAQLKQKVMNHGGCGGSGGHHHHHH | 10 | EC50 of mitogenesis (BrdU incorporation) in Swiss 3T3 cells with 15 U/ml heparin [2]: 0.24 nM |
| C19junΔhep (designed binder, also called C19jun?hep; C19junahep) MAESGDDYCVLVFTDSAWTKICDWSHFRNGPGGGSGGGSGGGSGGGSGGGSRCGGQIAQLEEKVQTLQAQNSELASTANMLREQVAQLKQKVMNHGGCGGSGGHHHHHH | 10 |  |
| AESGDDYCVLVFTDSAWTKIC [C19 with truncation of the C-terminal 7 amino acids] |  | fold loss of affinity against untruncated C19 [3]: ~15 fold |
| B1 |  | IC50 [4]: ~12 nM |
